These results are taken from publication doi:10.1101/2021.06.14.448427 (bioRxiv, 2021).

The target of test [1] is T1, NTF of c-CDCP1 Cut 2 ectodomain (ending after R368) (human, UniProt Q9H5V8 30-368).
T1 sequence (looked up): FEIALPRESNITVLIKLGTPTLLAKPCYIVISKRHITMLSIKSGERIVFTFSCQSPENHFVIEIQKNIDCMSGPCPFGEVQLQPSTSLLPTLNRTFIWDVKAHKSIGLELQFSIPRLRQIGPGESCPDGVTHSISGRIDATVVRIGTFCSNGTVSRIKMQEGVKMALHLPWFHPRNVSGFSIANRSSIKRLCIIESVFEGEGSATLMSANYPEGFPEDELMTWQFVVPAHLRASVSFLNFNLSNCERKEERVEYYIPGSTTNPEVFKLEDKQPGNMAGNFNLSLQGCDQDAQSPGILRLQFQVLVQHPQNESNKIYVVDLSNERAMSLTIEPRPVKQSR
The experiment in a line: SEC. (Size exclusion chromatography separates by hydrodynamic size, large species first.)

Test [2] has as its target T2, NTF of c-CDCP1 Cut 1 ectodomain (ending after K365) (human, UniProt Q9H5V8 30-365).
T2 sequence (looked up): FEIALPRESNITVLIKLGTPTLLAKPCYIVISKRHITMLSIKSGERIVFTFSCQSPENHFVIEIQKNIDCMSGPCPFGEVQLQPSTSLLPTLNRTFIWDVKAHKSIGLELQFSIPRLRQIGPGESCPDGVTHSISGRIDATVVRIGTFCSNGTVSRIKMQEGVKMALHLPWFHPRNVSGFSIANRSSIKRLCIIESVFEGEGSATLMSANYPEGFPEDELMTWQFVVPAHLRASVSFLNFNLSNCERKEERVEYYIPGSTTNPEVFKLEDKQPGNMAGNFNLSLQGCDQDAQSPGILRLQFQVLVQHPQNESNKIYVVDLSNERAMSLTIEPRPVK
The experiment in a line: SEC.

The target in test [3] is T3, NTF of c-CDCP1 Cut 3 ectodomain (ending after K369) (human, UniProt Q9H5V8 30-369).
T3 sequence (looked up): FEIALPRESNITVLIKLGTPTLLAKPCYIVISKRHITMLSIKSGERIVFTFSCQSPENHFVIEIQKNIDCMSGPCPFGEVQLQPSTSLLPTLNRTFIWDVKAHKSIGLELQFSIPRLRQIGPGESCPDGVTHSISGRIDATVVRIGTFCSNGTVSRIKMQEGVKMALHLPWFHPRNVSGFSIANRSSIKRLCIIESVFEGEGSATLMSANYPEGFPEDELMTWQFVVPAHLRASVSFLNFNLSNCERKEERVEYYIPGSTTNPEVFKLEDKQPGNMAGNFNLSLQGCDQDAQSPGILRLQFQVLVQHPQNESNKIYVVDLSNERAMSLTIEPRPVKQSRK
The experiment in a line: co-purification after co-transfection.

B1: CTF ectodomain of c-CDCP1 Cut 2 (starting after R368) (domain or fragment, human, UniProt Q9H5V8 369-665, looked up)
chain: KFVPGCFVCLESRTCSSNLTLTSGSKHKISFLCDDLTRLWMNVEKTISCTDHRYCQRKSYSLQVPSDILHLPVELHDFSWKLLVPKDRLSLVLVPAQKLQQHTHEKPCNTSFSYLVASAIPSQDLYFGSFCPGGSIKQIQVKQNISVTLRTFAPSFQQEASRQGLTVSFIPYFKEEGVFTVTPDTKSKVYLRTPNWDRGLPSLTSVSWNISVPRDQVACLTFFKERSGVVCQTGRAFMIIQEQRTRAEEIFSLDEDVLPKPSFHHHSFWVNISNCSPTSGKQLDLLFSVTLTPRTVD
In the case of B1, the binding result in test [1] is “binds”.

B2: CTF ectodomain of c-CDCP1 Cut 1 (starting after K365) (domain or fragment, human, UniProt Q9H5V8 366-665, looked up)
chain: QSRKFVPGCFVCLESRTCSSNLTLTSGSKHKISFLCDDLTRLWMNVEKTISCTDHRYCQRKSYSLQVPSDILHLPVELHDFSWKLLVPKDRLSLVLVPAQKLQQHTHEKPCNTSFSYLVASAIPSQDLYFGSFCPGGSIKQIQVKQNISVTLRTFAPSFQQEASRQGLTVSFIPYFKEEGVFTVTPDTKSKVYLRTPNWDRGLPSLTSVSWNISVPRDQVACLTFFKERSGVVCQTGRAFMIIQEQRTRAEEIFSLDEDVLPKPSFHHHSFWVNISNCSPTSGKQLDLLFSVTLTPRTVD
As for B2, the binding result in test [2] was “binds”.

B3: CTF ectodomain of c-CDCP1 Cut 3 (starting after K369) (domain or fragment, human, UniProt Q9H5V8 370-665, looked up)
chain: FVPGCFVCLESRTCSSNLTLTSGSKHKISFLCDDLTRLWMNVEKTISCTDHRYCQRKSYSLQVPSDILHLPVELHDFSWKLLVPKDRLSLVLVPAQKLQQHTHEKPCNTSFSYLVASAIPSQDLYFGSFCPGGSIKQIQVKQNISVTLRTFAPSFQQEASRQGLTVSFIPYFKEEGVFTVTPDTKSKVYLRTPNWDRGLPSLTSVSWNISVPRDQVACLTFFKERSGVVCQTGRAFMIIQEQRTRAEEIFSLDEDVLPKPSFHHHSFWVNISNCSPTSGKQLDLLFSVTLTPRTVD
For the molecule B3, the binding result in test [3] is “binds”.
